Source: patent US20220389120A1 (GENSUN BIOPHARMA, published 2022)

Target: T1, recombinant human Ang2 (Biolegend) (human, UniProt O15123 19-496, limits assumed)
T1 construct: Bought reagent; also called angiopoietin-2
T1 sequence (looked up): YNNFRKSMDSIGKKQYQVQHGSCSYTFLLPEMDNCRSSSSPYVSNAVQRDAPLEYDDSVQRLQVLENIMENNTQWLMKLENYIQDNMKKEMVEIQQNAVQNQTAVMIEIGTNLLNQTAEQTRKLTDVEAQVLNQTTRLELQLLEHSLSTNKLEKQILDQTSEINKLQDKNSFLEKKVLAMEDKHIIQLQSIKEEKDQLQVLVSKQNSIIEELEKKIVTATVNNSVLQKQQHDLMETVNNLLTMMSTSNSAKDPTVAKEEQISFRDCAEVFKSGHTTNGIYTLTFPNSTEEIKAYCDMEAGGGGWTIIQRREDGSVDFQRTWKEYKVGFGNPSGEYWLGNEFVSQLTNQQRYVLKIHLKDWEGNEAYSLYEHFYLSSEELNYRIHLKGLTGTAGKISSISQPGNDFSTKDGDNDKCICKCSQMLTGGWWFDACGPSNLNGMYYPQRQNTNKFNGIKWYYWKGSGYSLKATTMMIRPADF
Test: Tie2-Ang2 blocking ELISA
Description: 96-well assay plates were coated with 0.5 ug/ml of recombinant human Ang2 (Biolegend) in PBS at 4° C. overnight, then blocked with 1% BSA/PBS for 1 hour at room temperature. […] After washing with Wash Buffer, Streptavidin-HRP was added to the plate at 1:200 and incubated for 30 minutes at room temperature.

B1: GS01-A (other)
heavy: QVQLVQSGAEVKKPGASVKVSCKASGYTFTSYYIHWVRQAPGQGLEWMGWIFPGSGNSKYNENFKGRVTLTADTSTSTVYMELSSLRSEDTAVYYCASETYDYGDYWGQGTLVTVSSASTKGPSVFPLAPCSRSTSESTAALGCLVKDYFPEPVTVSWNSGALTSGVHTFPAVLQSSGLYSLSSVVTVPSSSLGTKTYTCNVDHKPSNTKVDKRVESKYGPPCPPCPAPEFLGGPSVFLFPPKPKDTLMISRTPEVTCVVVDVSQEDPEVQFNWYVDGVEVHNAKTKPREEQFNSTYRVVSVLTVLHQDWLNGKEYKCKVSNKGLPSSIEKTISKAKGQPREPQVYTLPPSQEEMGGAQTNFMPMDDLEQRLYEQFILQQGGGGSGGGGSGGGGSGGGGSTNFMPMDDLEQRLYEQFILQQGLETKNQVSLTCLVKGFYPSDIAVEWESNGQPENNYKTTPPVLDSDGSFFLYSRLTVDKSRWQEGNVFSCSVMHEALHNHYTQKSLSLSLGKGGGGSGGGGSGGGGSGGGGSEVQLVESGGGLVQPGGSLRLSCAASGFTISDYWIHWVRQAPGKGLEWVAGITPAGGYTYYADSVKGRFTISADTSKNTAYLQMNSLRAEDTAVYYCARFVFFLPYAMDYWGQGTLVTVSSGGGGSGGGGSGGGGSGGGGSDIQMTQSPSSLSASVGDRVTITCRASQDVSTAVAWYQQKPGKAPKLLIYSASFLYSGVPSRFSGSGSGTDFTLTISSLQPEDFATYYCQQGYGNPFTFGQGTKVEIK
light: DIQMTQSPSFLSASVGDRVTITCKASQNVGTNVAWYQQKPGKAPKALIYSASYRYSGVPSRFSGSGSGTEFTLTISSLQPEDFATYYCQQYYSYPYTFGQGTKLEIKRTVAAPSVFIFPPSDEQLKSGTASVVCLLNNFYPREAKVQWKVDNALQSGNSQESVTEQDSKDSTYSLSSTLTLSKADYEKHKVYACEVTHQGLSSPVTKSFNRGEC
notes: Trispecific PD-1/VEGF/Ang2 antagonist on an IgG4 Fc; also called trispecific construct GS01-A
  binding result: binds

B2: GS01-T (other)
heavy: QVQLVQSGAEVKKPGASVKVSCKASGYTFTSYYIHWVRQAPGQGLEWMGWIFPGSGNSKYNENFKGRVTLTADTSTSTVYMELSSLRSEDTAVYYCASETYDYGDYWGQGTLVTVSSASTKGPSVFPLAPCSRSTSESTAALGCLVKDYFPEPVTVSWNSGALTSGVHTFPAVLQSSGLYSLSSVVTVPSSSLGTKTYTCNVDHKPSNTKVDKRVESKYGPPCPPCPAPEFLGGPSVFLFPPKPKDTLMISRTPEVTCVVVDVSQEDPEVQFNWYVDGVEVHNAKTKPREEQFNSTYRVVSVLTVLHQDWLNGKEYKCKVSNKGLPSSIEKTISKAKGQPREPQVYTLPPSQEEMGGAQQEECEWDPWTCEHMGSGSATGGSGSTASSGSGSATHQEECEWDPWTCEHMGGTKNQVSLTCLVKGFYPSDIAVEWESNGQPENNYKTTPPVLDSDGSFFLYSRLTVDKSRWQEGNVFSCSVMHEALHNHYTQKSLSLSLGKGGGGSGGGGSGGGGSGGGGSEVQLVESGGGLVQPGGSLRLSCAASGFTISDYWIHWVRQAPGKGLEWVAGITPAGGYTYYADSVKGRFTISADTSKNTAYLQMNSLRAEDTAVYYCARFVFFLPYAMDYWGQGTLVTVSSGGGGSGGGGSGGGGSGGGGSDIQMTQSPSSLSASVGDRVTITCRASQDVSTAVAWYQQKPGKAPKLLIYSASFLYSGVPSRFSGSGSGTDFTLTISSLQPEDFATYYCQQGYGNPFTFGQGTKVEIK
light: B1 light
notes: Trispecific PD-1/VEGF/Ang1/Ang2 antagonist on an IgG4 Fc; also called trispecific construct GS01-T
  binding result: binds

B3: Bi-T0Z (Fc fusion)
chain: ESKYGPPCPPCPAPEFLGGPSVFLFPPKPKDTLMISRTPEVTCVVVDVSQEDPEVQFNWYVDGVEVHNAKTKPREEQFNSTYRVVSVLTVLHQDWLNGKEYKCKVSNKGLPSSIEKTISKAKGQPREPQVYTLPPSQEEMGGAQQEECEWDPWTCEHMGSGSATGGSGSTASSGSGSATHQEECEWDPWTCEHMGGTKNQVSLTCLVKGFYPSDIAVEWESNGQPENNYKTTPPVLDSDGSFFLYSRLTVDKSRWQEGNVFSCSVMHEALHNHYTQKSLSLSLGKGGGGSGGGGSGGGGSSDTGRPFVEMYSEIPEIIHMTEGRELVIPCRVTSPNITVTLKKFPLDTLIPDGKRIIWDSRKGFIISNATYKEIGLLTCEATVNGHLYKTNYLTHRQTNTIIDVVLSPSHGIELSVGEKLVLNCTARTELNVGIDFNWEYPSSKHQHKKLVNRDLKTQSGSEMKKFLSTLTIDGVTRSDQGLYTCAASSGLMTKKNSTFVRVHEK
  binding result: binds
